Results published in publication PMC5027278.

Target: EphA2 (co-transfected with Anks1a constructs) (UniProt P29317)
Test: not stated; interaction in co-transfected cells, quantified against WT Anks1a (Supplementary Fig. 5f,g)

Chain of UniProt P29317 (P29317 24-976): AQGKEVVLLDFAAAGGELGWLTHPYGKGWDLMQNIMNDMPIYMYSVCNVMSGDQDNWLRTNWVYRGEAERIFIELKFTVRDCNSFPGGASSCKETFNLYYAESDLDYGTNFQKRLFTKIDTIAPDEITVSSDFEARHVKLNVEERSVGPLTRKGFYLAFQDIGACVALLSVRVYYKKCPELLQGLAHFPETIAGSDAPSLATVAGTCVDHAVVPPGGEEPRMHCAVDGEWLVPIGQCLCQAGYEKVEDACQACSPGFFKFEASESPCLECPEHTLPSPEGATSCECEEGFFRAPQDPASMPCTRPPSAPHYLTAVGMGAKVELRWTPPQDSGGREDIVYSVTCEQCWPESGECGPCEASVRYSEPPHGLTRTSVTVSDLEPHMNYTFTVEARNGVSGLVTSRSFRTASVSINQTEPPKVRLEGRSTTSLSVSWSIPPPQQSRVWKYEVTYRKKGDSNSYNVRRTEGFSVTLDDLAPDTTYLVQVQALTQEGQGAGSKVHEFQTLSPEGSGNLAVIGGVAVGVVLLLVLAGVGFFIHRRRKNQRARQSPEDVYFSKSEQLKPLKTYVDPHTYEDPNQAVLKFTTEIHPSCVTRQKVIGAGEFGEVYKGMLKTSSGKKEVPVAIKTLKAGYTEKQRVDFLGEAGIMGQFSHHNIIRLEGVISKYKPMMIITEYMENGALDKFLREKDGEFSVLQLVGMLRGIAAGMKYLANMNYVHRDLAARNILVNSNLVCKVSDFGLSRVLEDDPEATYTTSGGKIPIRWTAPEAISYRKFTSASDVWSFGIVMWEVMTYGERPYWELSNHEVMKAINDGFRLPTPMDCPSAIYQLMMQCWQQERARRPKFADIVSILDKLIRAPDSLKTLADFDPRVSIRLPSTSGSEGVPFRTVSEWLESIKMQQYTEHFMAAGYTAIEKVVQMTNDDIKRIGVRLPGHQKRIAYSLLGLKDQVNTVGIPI

Substance: Anks1a-S647A/S663A double mutant (Ser DM) (natural protein)
- binding relative to WT Anks1a: 50%
